# Measured values as given in US20040053370A1 (Eli Lilly, published 2004).
# Ends that are not written are not given here.
# Target: GLP-1 receptor
# Test: cell-based or functional assay
row,Binder,GLP-1 Receptor Activation
1,HVEGTFTSDVSSYLEEQAAKEFIAWLVKGR-NH2 [Val^8-Glu^22-GLP-1(7-36)NH2],1 fold of GLP-1(7-37)OH
2,HVEGTFTSDVSSYLEKQAAKEFIAWLVKGR-NH2 [Val^8-Lys^22-GLP-1(7-36)NH2],0.53 fold of GLP-1(7-37)OH
3,HVEGTFTSDLSSYLEGQAAEEFIAWLVKGRG [Val^8-Leu^16-Glu^26-GLP-1(7-37)OH],0.23 fold of GLP-1(7-37)OH
4,HGEGHFTSDVSSYLEGQAAKEFIAWLVKGRG [Gly^8-His^11-GLP-1(7-37)OH],0.282 fold of GLP-1(7-37)OH
5,HVEGKFTSDVSSYLEGQAAKEFIAWLVKGRG [Val^8-Lys^11-GLP-1(7-37)OH],0.001 fold of GLP-1(7-37)OH
6,HVEGTFTSDVSSYLEGQAAEEFIAWLVKGRG [Val^8-Glu^26-GLP-1(7-37)OH],1.5 fold of GLP-1(7-37)OH
7,HVEGTFTSDVSSYLEPQAAKEFIAWLVKGRG [Val^8-Pro^22-GLP-1(7-37)OH],0.01 fold of GLP-1(7-37)OH
8,HVEGTFTSDVSSYLEGQAAKEFIAWLVKGEG [Val^8-Glu^36-GLP-1(7-37)OH],0.11 fold of GLP-1(7-37)OH
9,HVEGTFTSDVSSYKEGQAAKEFIAWLVKGRG [Val^8-Lys^20-GLP-1(7-37)OH],0.33 fold of GLP-1(7-37)OH
10,HVEGTFTSDVSSYLEGQHAKEFIAWLVKGRG [Val^8-His^24-GLP-1(7-37)OH],0.007 fold of GLP-1(7-37)OH
11,HVEGTFTSDESSYLEGQAAKEFIAWLVKGRG [Val^8-Glu^16-GLP-1(7-37)OH],0.047 fold of GLP-1(7-37)OH
12,HVEGTFTSDASSYLEGQAAKEFIAWLVKGRG [Val^8-Ala^16-GLP-1(7-37)OH],0.112 fold of GLP-1(7-37)OH
13,HVEGTFTSDVSSYLEGQAAKEFIAWLVKERG [Val^8-Glu^35-GLP-1(7-37)OH],0.15 fold of GLP-1(7-37)OH
14,HVEGTFTSDVSSYLEGQKAKEFIAWLVKGRG [Val^8-Lys^24-GLP-1(7-37)OH],0.02 fold of GLP-1(7-37)OH
15,HVEGTFTSDVSSYLEEQAAKEFIAWLVKGRG [Val^8-Glu^22-GLP-1(7-37)OH],1.29 fold of GLP-1(7-37)OH
16,HVEGTFTSDVSSYLEGQAAKEFIAWLVKGHG [Val^8-His^36-GLP-1(7-37)OH],0.22 fold of GLP-1(7-37)OH
17,HVEGAFTSDVSSYLEGQAAKEFIAWLVKGRG [Val^8-Ala^11-GLP-1(7-37)OH],0.021 fold of GLP-1(7-37)OH
18,HVEGTFTSDVSSYLEKQAAKEFIAWLVKGRG [Val^8-Lys^22-GLP-1(7-37)OH],0.58 fold of GLP-1(7-37)OH
19,HVEGTFTSDVSSYLEGQAAKEFIAWLGKGRG [Val^8-Gly^33-GLP-1(7-37)OH],0.01 fold of GLP-1(7-37)OH
20,HVEGTFTSDVSSYLEGQAAKEFIAWLVKHRG [Val^8-His^35-GLP-1(7-37)OH],0.41 fold of GLP-1(7-37)OH
21,HVEGTFTSDVSSYLEGKAAKEFIAWLVKGRG [Val^8-Lys^23-GLP-1(7-37)OH],0.18 fold of GLP-1(7-37)OH
22,HVEGTFTSDVSSYLEAQAAKEFIAWLVKGRG [Val^8-Ala^22-GLP-1(7-37)OH],0.56 fold of GLP-1(7-37)OH

row,Binder,GLP-1 Receptor Activation
1,HVEGTFTSDVSSYLESQAAKEFIAWLVKGRG [Val^8-Ser^22-GLP-1(7-37)OH],0.5 fold of GLP-1(7-37)OH
2,HVEGTFTSDVSSYLEHQAAKEFIAWLVKGRG [Val^8-His^22-GLP-1(7-37)OH],0.14 fold of GLP-1(7-37)OH
3,HVEGTFTSDVSSYLEGQAAHEFIAWLVKGRG [Val^8-His^26-GLP-1(7-37)OH],1.6 fold of GLP-1(7-37)OH
4,HVEGTFTSDVSSYLEGQAAKHFIAWLVKGRG [Val^8-His^27-GLP-1(7-37)OH],0.37 fold of GLP-1(7-37)OH
5,HVEGTFTSDVSSYLEGQAAKEFIAWLAKGRG [Val^8-Ala^33-GLP-1(7-37)OH],0.1 fold of GLP-1(7-37)OH
6,HVEGTFTSDVSSYLEGQAAKEFIAWLEKGRG [Val^8-Glu^33-GLP-1(7-37)OH],0.039 fold of GLP-1(7-37)OH
7,HVEGTFTSDVSSYLEGQAAKEFIEWLVKGRG [Val^8-Glu^30-GLP-1(7-37)OH],0.29 fold of GLP-1(7-37)OH
8,HVEGTFTSDVSSYLEGQAAKEFIAWLVEGRG [Val^8-Glu^34-GLP-1(7-37)OH],0.17 fold of GLP-1(7-37)OH
9,HGEGTFTSDVSSYLEGQAAKEFIEWLVKGRG [Gly^8-Glu^30-GLP-1(7-37)OH],0.29 fold of GLP-1(7-37)OH
10,HVEGTFTSDVSSYLEGQAAKEFISWLVKGRG [Val^8-Ser^30-GLP-1(7-37)OH],0.19 fold of GLP-1(7-37)OH
11,HVEGTFTSDVSSYLEDQAAKEFIAWLVKGRG [Val^8-Asp^22-GLP-1(7-37)OH],0.4 fold of GLP-1(7-37)OH
12,HVEGTFTSDVSSYLEGQAAKEFIHWLVKGRG [Val^8-His^30-GLP-1(7-37)OH],0.19 fold of GLP-1(7-37)OH
13,HVEGTFTSDVSSYLEGQAAKEFIDWLVKGRG [Val^8-Asp^30-GLP-1(7-37)OH],0.15 fold of GLP-1(7-37)OH
14,HAEGTFTSDVSSYLEQQAAKEFIAWLVKGRG [Gln^22-GLP-1(7-37)OH],0.42 fold of GLP-1(7-37)OH
15,HVEGTFTSDVSSYLEGQAAKEFIAWLVKPRG [Val^8-Pro^35-GLP-1(7-37)OH],0.094 fold of GLP-1(7-37)OH
16,HVEGTFTSDVSSYLEGQAAKEFIAWLVKGRH [Val^8-His^37-GLP-1(7-37)OH],0.33 fold of GLP-1(7-37)OH
17,HVEGTFTSDVSSYLEGQAAKEFIAWLKVGRG [Val^8-Lys^33-Val^34-GLP-1(7-37)OH],0.08 fold of GLP-1(7-37)OH
18,HVEGTFTSDVSSYLEGQAAKEFIAWLVGKRG [Val^8-Gly^34-Lys^35-GLP-1(7-37)OH],0.34 fold of GLP-1(7-37)OH
19,HVEGTFTSDVSSYLEKQAAKEFIEWLVKGRG [Val^8-Lys^22-Glu^30-GLP-1(7-37)OH],0.37 fold of GLP-1(7-37)OH
20,HVEGTFTSDVSSYLEKEAAKEFIAWLVKGRG [Val^8-Lys^22-Glu^23-GLP-1(7-37)OH],0.35 fold of GLP-1(7-37)OH
21,HVEGTFTSDVSSYLEEKAAKEFIAWLVKGRG [Val^8-Glu^22-Lys^23-GLP-1(7-37)OH],1.43 fold of GLP-1(7-37)OH
